Test results reported in publication doi:10.1101/2022.05.04.490172.

Molecular target: T1, BRN2 DNA-binding domain (BRN2-DBD) (Homo sapiens, UniProt P20265 264-415)
T1 sequence: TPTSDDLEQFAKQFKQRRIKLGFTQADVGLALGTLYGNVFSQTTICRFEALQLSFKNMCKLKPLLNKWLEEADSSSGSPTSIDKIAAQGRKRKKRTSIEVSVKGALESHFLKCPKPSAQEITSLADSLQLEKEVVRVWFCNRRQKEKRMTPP
Experiment: X-ray crystallography

B1: MORE DNA (dsDNA)
DNA 1: GTATGCAAATAAG
DNA 2: CTTATTTGCATAC
B1: binds.
